Source: publication PMC3833899 (Brain research, 2013)

Target: Recombinant chick netrin-1 (chick, UniProt Q90922 26-606)
Assay: retention on a 30 kD cut-off size exclusion

## PRYQHTGAVYLLSASPQ [Integrin α3 peptide]
  binding result: binds
